For data set [1], the target named is histone H3.
A further data set concerns the target T1, MT1-MMP catalytic domain (Homo sapiens, UniProt P50281).
T1 construct: reacted with the MT1-MMP catalytic domain (EMD Millipore) at 22° C; purchased Calbiochem / EMD Millipore
The data set can be described thus: In vitro cleavage by MT1-MMP catalytic domain (anti-His immunoblot). Conditions: for sensitivity to MT1-MMP cleavage: incubated with recombinant MT1-MMP catalytic enzyme. It is filed as biochemical. How it is done:
FIG. 3 depicts anti-His immunoblotting of TAT-TLK1B or TAT-MS-TLK1B, reacted with the MT1-MMP catalytic domain (EMD Millipore) at 22° C., as a function of time. 1.5 μg TAT-TLK1B, TAT-MS-TLK1B or TAT-TL-MS-K was reacted with 0.02 mU MT1-MMP, catalytic domain (Calbiochem) in reaction buffer containing 50 mM Tris pH 7.5, 150 mM NaCl, 5 mM CaCl2. The reactions were incubated at 22° C. for the indicated times (10, 20, 30, 60, or 120 minutes). […] Although MT1-MMP has a preference for the preferred cleavage site motif, that preference is neither strict nor absolute. Thus other proteins will be cleaved as well; what is important is the relative sensitivity of MS-containing proteins to MT1-MMP cleavage.
A general note: Immunoblotting shows a protein as a band on a membrane.

Data set [2] concerns the target histone H3 (Homo sapiens, UniProt P68431). Kind of data set: Kinase activity by histone H3 Ser10 phosphorylation (immunoblot). It is filed as biochemical. To be noted: in vitro, kinase buffer at 30° C; data not shown. How it is done: In the next attempt, the MS was inserted 5′ to the kinase domain of TLK1B. The recombinant TAT-TL-MS-K protein was produced, purified, and the activity of the protein was analyzed in vitro. […] Activity of the TAT-TL-MS-K was monitored indirectly by evaluation of histone H3 Seri 0 phosphorylation. Recombinant TAT-TLK1B or TAT-TL-MS-K was reacted with histone H3 at ratios of 1:10, 1:5, or 1:1 in a kinase buffer at 30° C. Reactions were loaded onto SDS-PAGE gels, and immunoblotted against anti-Ser10 H3 (Millipore). […] The functional, MMP-sensitive TAT-TL-MS-K will be used to confirm transduction in normal and cancer cells, and the ability of TAT-TL-MS-K to sensitize cancer cells such as head and neck cancer cells to radiation.

In a further data set the test system is rat salivary glands. Conditions: delivered directly to rat salivary glands; preclinical, Sunavala-Dossabhoy 2012; cited from earlier work.
For data set [3], the system named is HNSCC cells (cell line SCC40). Kind of data set: Protein transduction into SCC40 cells (anti-hemagglutinin immunoblot). To be noted: 40 μg protein, 6 hours after protein transduction. In kind it is cell-based. As for the experimental part: HNSCC cells (cell line SCC40) were cultured on rat tail type I collagen plates in DMEM/0.1% BSA for 3 days before addition of 40 μg TAT-TLK1B or TAT-MS-TLK1B. Control cells (Untreated cells, Untx) were treated with an equal volume of OPTI-MEM™ reduced serum medium—a modification of Eagle's Minimum Essential Media, buffered with HEPES and sodium bicarbonate, and supplemented with hypoxanthine, thymidine, sodium pyruvate, L-glutamine, trace elements, and growth factors. FIG. 4A depicts the results of immunoblotting the respective cell lysates with anti-(MT1-MMP catalytic domain) antibody (Millipore). The arrow at 68 kD corresponds to pro-MT1-MMP. […] The 52 kD and 55 kD proteins were products of autocatalytic cleavage of MT1-MMP. […] Active MT1-MMP is membrane-bound, and is responsible for cleaving and activating pro-MMP-2 to active MMP-2. Active MT1-MMP can also undergo autocatalytic processing. The presence of a substrate such as TAT-MS-TLK1B or TAT-TL-MS-K will decrease the MT1-MMP autocatalysis. […] In other words, the observed decrease in MT1-MMP auto-cleavage is indirect evidence that the recombinant TAT-MS-fusion protein is being cleaved as designed.
FIG. 4B depicts results of immunoblotting the respective cell lysates with horseradish peroxidase-conjugated anti-hemagglutinin (Sigma) 6 hours after protein transduction. […]

With “MT1-MMP expressed by HNSCC cell line SCC40”, the “MT1-MMP autoproteolytic products (52 kD and 55 kD) in SCC40 lysates, immunoblot” value in the data set with TAT-MS-TLK1B was “The autoproteolytic products declined sharply in the presence of the TAT-MS-TLK1B”.

B1: TAT-TLK-MS fusion protein (protein)
chain: MHHHHHHSSGLVPRGSGMKETAAAKFERQHMDSPDLGTDDDDKAMAISDPNSSSVDKLGYGRKKRRQRRRGGSTMSGYPYDVPDYAGSMVKLAALESNKIQDLEKKEGRIDDLLRANCDLRRQIDEQQKLLEKYKERLNKCISMSKKLLIEKSTQEKLSSREKSMQDRLRLGHFTTVRHGASFTEQWTDGFAFQNLVKQQEWVNQQREDIERQRKLLAKRKPPTANNSQAPSTNSEPKQRKNKAVNGAENDPFVRPNLPQLLTLAEYHEQEEIFKLRLGHLKKEEAEIQAELERLERVRNLHIRELKRINNEDNSQFKDHPTLNERYLLLHLLGRGGFSEVYKAFDLYEQRYAAVKIHQLNKSWRDEKKENYHKHACREYRIHKELDHPRIVKLYDYFSLDTDTFCTVLEYCEGNDLDFYLKQHKLMSEKEARSIVMQIVNALRYLNEIKPPIIHYDLKPGNILLVDGTACGEIKITDFGLSKIMDDDSYGVDGMDLTSQGAGTYWYLPPECFVVGKEPPKISNKVDVWSVGVIFFQCLYGRKPFGHNQSQQDILQENTILKATEVQFPVKGSVPLSLRSGTPVVSSEAKAFIRRCLAYRKEDRFDVHQLANDPYLLPHMRRSNSSGNLHMAGLTASPTPPSSSIITY
Take B1: the “phosphorylation of histone H3 Ser-10 (kinase activity)” value with histone H3 [1] is listed as “would not phosphorylate the TLK substrate, histone H3 Ser-10”.

B2: TAT-TLK-MS: SEQ ID NO: 3, fusion protein with MT1-MMP cleavage site in a presumptive loop towards the carboxy terminus (protein)
chain: B1 chain
modifications: TAT-TLK-MS fusion protein
On to B2, for which the “sensitivity to MT1-MMP cleavage” value with MT1-MMP catalytic domain is “sensitive to cleavage”. In the data set with histone H3 [2], the “kinase activity (phosphorylation of histone H3 Ser-10)” value is “would not phosphorylate the TLK substrate”.

B3: TAT-TLK1B: SEQ ID NO: 2, TAT-TLK1B fusion protein without the MS cleavage site (protein)
chain: MHHHHHHSSGLVPRGSGMKETAAAKFERQHMDSPDLGTDDDDKAMAISDPNSSSVDKLGYGRKKRRQRRRGGSTMSGYPYDVPDYAGSMVKLAALESNKIQDLEKKEGRIDDLLRANCDLRRQIDEQQKLLEKYKERLNKCISMSKKLLIEKSTQEKLSSREKSMQDRLRLGHFTTVRHGASFTEQWTDGFAFQNLVKQQEWVNQQREDIERQRKLLAKRKPPTANNSQAPSTNSEPKQRKNKAVNGAENDPFVRPNLPQLLTLAEYHEQEEIFKLRLGHLKKEEAEIQAELERLERVRNLHIRELKRINNEDNSQFKDHPTLNERYLLLHLLGRGGFSEVYKAFDLYEQRYAAVKIHQLNKSWRDEKKENYHKHACREYRIHKELDHPRIVKLYDYFSLDTDTFCTVLEYCEGNDLDFYLKQHKLMSEKEARSIVMQIVNALRYLNEIKPPIIHYDLKPGNILLVDGTACGEIKITDFGLSKIMDDDSYGVDGMDLTSQGAGTYWYLPPECFVVGKEPPKISNKVDVWSVGVIFFQCLYGRKPFGHNQSQQDILQENTILKATEVQFPVKPVVSSEAKAFIRRCLAYRKEDRFDVHQLANDPYLLPHMRRSNSSGNLHMAGLTASPTPPSSSIITY
modifications: TAT-TLK1B fusion protein
With B3, the radiation-induced xerostomia entry in the data set with rat salivary glands is given as “mitigate radiation-induced xerostomia”. For the same molecule, the “cleavage by MT1-MMP catalytic domain after 120 minutes” value with MT1-MMP catalytic domain (1.5 μg protein, 0.02 mU MT1-MMP, 22° C, 120 minutes) is recorded as “still showed substantial activity”. Also, the “sensitivity to MT1-MMP cleavage” value with MT1-MMP catalytic domain is “also cleaved by the enzyme, although not as rapidly”. Further, the “transduction into SCC40 cancer cells” value in data set [3] is “efficiently transduced”.

B4: TAT-TL-MS-K fusion protein (protein)
chain: MHHHHHHSSGLVPRGSGMKETAAAKFERQHMDSPDLGTDDDDKAMAISDPNSSSVDKLGYGRKKRRQRRRGGSTMGGYPYDVPDYAGSMLKLAALESNKIQDLEKKEGRIDDLLRANCDLRRQIDEQQKLLEKYKERLNKCISMSKKLLIEKSTQEKLSSREKSMQDRLRLGHFTTVRHGASFTEQWTDGFAFQNLVKQQEWVNQQREDIERQRKLLAKRKPPTANNSQAPSTNSEPKQRKNKAVNGAENDPFVRPNLPQLLTLAEYHEQEEIFKLRLGHLKKEEAEIQAELERLERVRNLHIRELKRINNEDNSQFKAAAVPLSLRSGTSDHPTLNERYLLLHLLGRGGFSEVYKAFDLYEQRYAAVKIHQLNKSWRDEKKENYHKHACREYRIHKELDHPRIVKLYDYFSLDTDTFCTVLEYCEGNDLDFYLKQHKLMSEKEARSIVMQIVNALRYLNEIKPPIIHYDLKPGNILLVDGTACGEIKITDFGLSKIMDDDSYGVDGMDLTSQGAGTYWYLPPECFVVGKEPPKISNKVDVWSVGVIFFQCLYGRKPFGHNQSQQDILQENTILKATEVQFPVKPVVSSEAKAFIRRCLAYRKEDRFDVHQLANDPYLLPHMRRSNSSGNLHMAGLTASPTPPSSSIITY
Take B4: in the data set with histone H3 [1], the “phosphorylation of histone H3 Ser10, immunoblot with anti-Ser10 H3” value is given as “TAT-TL-MS-K retained the native kinase activity, as indicated by phosphorylation of histone H3 (data not shown)”.

B5: TAT-TL-MS-K: SEQ ID NO: 4, fusion protein with MT1-MMP cleavage site inserted 5′ to the kinase domain of TLK1B (protein)
chain: B4 chain
modifications: TAT-TL-MS-K fusion protein
For the molecule B5, the “sensitivity to MT1-MMP cleavage” value with MT1-MMP catalytic domain is recorded as “more sensitive to MT1-MMP cleavage than was TAT-TLK1B”. Further, in the data set with histone H3 [2], the “kinase activity (phosphorylation of histone H3 Ser-10)” value was “retained the native kinase activity”.

The values are drawn from patent publication US20160067316A1, “Selective Sensitization of Cancer Cells to, and Selective Protection of Non-Cancer Cells from Genotoxic Therapies” (Board of Supervisors of Louisiana State University and …, priority 2014, published 2016).
